The results in this text go back to patent US20250250357A1 (NANJING ZAIMING PHARMACEUTICAL, published 2025).

Broadly, the EC50 is the midpoint of the concentration-response curve. The Kd is the equilibrium constant for the complex coming apart. For orientation: koff means a measure of how fast the partners let go of each other. In general, kon refers to a measure of how fast the partners come together.

Read-outs that look alike come from different tables or passages of the source.

In assay [1] the target is T1, human MSLN-R3 protein (Met487-Ser606 of NCBI AAH09272.1) expressed on HEK293T-hMSLN-R3 cells (human, UniProt Q13421 487-606).
T1 construct: also called Region3
In words: FACS on HEK293T-hMSLN-R3 cells.

The target of assay [2] is T2, human MSLN protein endogenously expressed on OVCAR3 tumor cells (human, UniProt Q13421 296-598).
T2 construct: whole, on cells; Endogenous target on OVCAR3 cells; kept apart from the recombinant full-length construct; also called mesothelin
As to the kind of experiment: FACS on OVCAR3 cells.

Assay [3] has as its target T3, monkey MSLN full-length protein (NCBI: XP_028696439.1) expressed on HEK293T-monkey MSLN cells (monkey).
T3 construct: Whole encoded precursor
T3 chain: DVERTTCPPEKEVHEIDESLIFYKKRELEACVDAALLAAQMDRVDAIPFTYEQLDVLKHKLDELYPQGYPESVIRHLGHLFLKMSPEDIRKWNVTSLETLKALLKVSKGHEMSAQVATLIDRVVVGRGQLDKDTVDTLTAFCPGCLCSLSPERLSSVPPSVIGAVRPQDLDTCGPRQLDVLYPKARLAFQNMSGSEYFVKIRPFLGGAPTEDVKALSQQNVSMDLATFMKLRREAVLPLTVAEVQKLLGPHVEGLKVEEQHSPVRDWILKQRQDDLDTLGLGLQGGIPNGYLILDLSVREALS
As to the kind of experiment: FACS on HEK293T-monkey MSLN cells.

For assay [4], the target named is T4, human MSLN full-length protein (NCBI: AAH09272.1) expressed on HEK293T-hMSLN-B8 cells (human, UniProt Q13421 296-598).
T4 construct: Whole encoded precursor
In words: FACS on HEK293T-hMSLN-B8 cells.

The target in assay [5] is T5, human MSLN-FL-his protein (human, UniProt Q13421 296-580).
T5 construct: made in HEK293E cells, purified on nickel column; also called hMSLN-FL-his; human MSLN full-length protein; not shown: His tag
As to the kind of experiment: competitive ELISA; row F8-29.1. Background: ELISA stands for enzyme-linked immunosorbent assay.

Assay [6] has as its target T6, human MSLN-R3 protein expressed on HEK293T cells (HEK293T-hMSLN-R3) (human, UniProt Q13421 487-606).
T6 construct: C-terminal limit uncertain
In words: FACS on HEK293T-hMSLN-R3 cells.

Assay [7] deals with T5, human MSLN-FL-his protein. In words: competitive ELISA; row F8-24.14.
Assay [8] concerns the target T5, human MSLN-FL-his protein. As to the kind of experiment: SPR (Biacore), antibody captured on Protein A chip.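 Also: flow cell at 25 °C, antigen injected for 240 s at five concentrations from 200 nM downward, dissociation followed up to 600 s, double-referenced, fitted with Langmuir 1:1 model.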
For assay [9], the target named is T5, human MSLN-FL-his protein. In words: competitive ELISA; row F8-9.16.
For assay [10], the target named is T5, human MSLN-FL-his protein. As to the kind of experiment: competitive ELISA; row Tab142.
Assay [11] has as its target T5, human MSLN-FL-his protein. In words: competitive ELISA; row F8-36.12.
The target of assay [12] is T7, human MSLN protein endogenously expressed on OVCAR3 tumor cells (human, UniProt Q13421 296-598).
T7 construct: whole, on cells; endogenous expression on a tumor cell line; also called human mesothelin
As to the kind of experiment: FACS on OVCAR3 cells.

Assay [13] concerns the target T5, human MSLN-FL-his protein. As to the kind of experiment: competitive ELISA; row Tab021.
Assay [14] concerns the target T5, human MSLN-FL-his protein. As to the kind of experiment: competitive ELISA; row F8-8.22.
Assay [15] addresses T5, human MSLN-FL-his protein. In words: competitive ELISA; row F8-28.23.
Assay [16] addresses T5, human MSLN-FL-his protein. As to the kind of experiment: competitive ELISA; row F8-32.3.
Assay [17] concerns the target T5, human MSLN-FL-his protein. As to the kind of experiment: competitive ELISA; row F8-22.23.
For assay [18], the target named is T5, human MSLN-FL-his protein. In words: competitive ELISA; row F8-33.12.

T1 sequence (Q13421 495-614): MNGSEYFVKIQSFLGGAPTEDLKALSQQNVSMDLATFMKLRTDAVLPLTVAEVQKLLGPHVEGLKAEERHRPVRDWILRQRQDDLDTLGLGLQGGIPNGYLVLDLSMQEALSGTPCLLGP
T6 sequence (Q13421 495-614): as above
T4 sequence (Q13421 other isoform, or with tags, fused parts or gaps limits assumed): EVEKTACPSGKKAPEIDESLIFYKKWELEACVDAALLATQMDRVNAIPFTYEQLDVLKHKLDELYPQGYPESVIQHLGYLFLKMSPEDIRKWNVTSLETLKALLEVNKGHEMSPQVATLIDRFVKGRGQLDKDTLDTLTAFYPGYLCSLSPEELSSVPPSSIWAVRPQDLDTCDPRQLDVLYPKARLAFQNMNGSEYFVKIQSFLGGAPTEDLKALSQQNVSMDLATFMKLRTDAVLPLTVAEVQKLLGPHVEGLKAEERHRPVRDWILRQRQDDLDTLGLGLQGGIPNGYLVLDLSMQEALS
T5 sequence (Q13421 other isoform, or with tags, fused parts or gaps): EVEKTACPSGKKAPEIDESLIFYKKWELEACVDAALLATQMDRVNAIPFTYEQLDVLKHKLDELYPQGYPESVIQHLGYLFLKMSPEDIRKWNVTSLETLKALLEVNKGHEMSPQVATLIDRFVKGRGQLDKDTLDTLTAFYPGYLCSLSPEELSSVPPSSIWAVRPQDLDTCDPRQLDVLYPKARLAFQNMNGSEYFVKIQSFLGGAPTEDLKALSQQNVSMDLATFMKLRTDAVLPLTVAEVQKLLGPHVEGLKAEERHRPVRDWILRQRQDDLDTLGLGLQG

B1: S009-F1.7.14 (antibody, human IgG1, kappa)
heavy: not shown
light: QIVLTQSPAIMSASPGEKVTISCSASSSVSYMYWYQQKPGSSPKPWISRTSNLASGVPARFSGSGSGTSYSLTISSMEAEDAATYYCQQYHSYPPTLGAGTKLELKRTVAAPSVFIFPPSDEQLKSGTASVVCLLNNFYPREAKVQWKVDNALQSGNSQESVTEQDSKDSTYSLSSTLTLSKADYEKHKVYACEVTHQGLSSPVTKSFNRGEC
notes: human-murine chimeric antibody, human IgG1/kappa constant regions
For B1, the “Maximum mean fluorescence intensity” value came out at 239 in assay [1], 2250 in assay [2], 47500 in assay [3] and 70300 in [4]. Besides, in assay [1], the binding result is listed as “no binding”. Further, the 50% effective concentration (EC50) came out at 5.69 nM in assay [3] and 3.4 nM in assay [4].

B2: S009-F1.35.24 (antibody, human IgG1, kappa, V domains shown)
VH: EVQLQQSEPELVKPGASVRISCKASGYSFTDYYMHWVKQSPENRLEWIGEINPSTGGTSYNPKFKDKATLTVDKSSSTAYMQLKSLTSEESAVYYCTRYHYYGSSSYVMDYWGQGTSVTVSS
VL: QIVLTQSPAILSASPGERVTMTCSASSSVYHMHWFQQKSGTSPKRWVYDTSKLASGVPARFSGSGSGTSYSLTISSMEAEDAATYYCQHWRTNPLTFGAGTKLELKR
notes: as for B1
As to B2, the “Maximum mean fluorescence intensity” value in assay [1] worked out at 680; in assay [2], 10500; in [3], 52100; in assay [4] it was 109000. Further, the binding result in [1] is “no binding”. The 50% effective concentration (EC50) in assay [2] is 2.08 nM; in [3] it was 4.75 nM; in [4] it was 2.93 nM.

B3: S009-F1.2.12 (antibody, human IgG1, kappa, V domains shown)
VH: QVQLKQTGPGLVQPSQSLSITCTVSGFSLTNYAVHWVRQSPGKGLEWLGVIWSGGATDYNTVFISRLSISKDNSKSQVFFKVNSLQVDDTAIYYCARTGSGYAMDYWGQGTSVTVSS
VL: DIVLTQSPATLSVTPGDRVSLSCRTSHNVNTYLHWYQQKSHESPRLLIKYASQSISEIPSRFSGSGSGTNFTLSINSVETEDFGMYFCHQTNRWPLTFGAGTKLELKR
notes: as for B1
For B3, the “Maximum mean fluorescence intensity” value in assay [1] stood at 239; in assay [2], 9620; in assay [3], 29200; in assay [4] it was 87200. Also, the binding result in assay [1] is given as “no binding”. Moreover, the 50% effective concentration (EC50) was 1.87 nM in assay [2], 1.39 nM in assay [3] and roughly 0.86 nM in [4].

B4: S009-F8-36.12 (antibody, human IgG1, kappa, V domains shown)
VH: EVQLQQSGPELVKPGASVKISCKASGYTFTDYYMNWVKQSHGKSLEWIGDINPNNGGTSYNQKFKGKATLTVDKSSSTAYMELRSLTSEDSAVYYCASWGYGSSSRGYFDYWGQGTTLTVSS
VL: QIVLSQSPAILSASPGEKVTMTCRASSSVSYMHWYQQKPGSSPKPWIYATSNLASGVPARFSGSGSGTSYSLTISRVEAEDAATYYCQQWSSNPWTFGGGTKLEIKR
notes: as for B1
For B4, the competition rate in assay [5] was 9.4%; in [7] it was 10.3%; in assay [9], -47.7%; in assay [10], 17.4%; in assay [11] it was 61.5%; in assay [13] it was 6.4%. Also, the competition rate in [14] is 5.9%; in assay [15] it was -10.7%; in assay [16] it was 9.8%; in [17] it was -3.1%; in assay [18] it was 8.3%. For the same molecule, the values for the concentration giving a half-maximal response (EC50) in [6] and in [12] were 11 nM and 15.2 nM, respectively. Besides, the “Maximum mean fluorescence intensity” value was found to be 7970 in assay [6] and 2510 in assay [12]. Besides, the equilibrium dissociation constant (Kd) in assay [8] came out at 103 nM. For the same molecule, in [8], the koff turned out to be 0.0122 s⁻¹. The molecule also displayed a kon in assay [8] of 118000 M⁻¹ s⁻¹.

B5: S009-F8-24.14 (antibody, human IgG1, kappa, V domains shown)
VH: EFQLQQSGPELVKPGASVKISCKASGYSFTDYNMNWVKLSNGKSLEWIGVIIPNYGTSSYNQKFKGKATLTVDQSSSTAYMQLNSLTSEDSAVYYCARWDNYYGSSLDYWGQGTTLTVSS
VL: DIVMTQSQKFMSTTVGDRVSITCKASQNVGTAVAWYQQKPGQSPKLLIYSASNRYTGVPDRFTGSGSGTDFILTISNMQSEDLADYFCQQYSSYPLTFGAGTKLELKR
notes: as for B1
In the case of B5, the competition rate in assay [5] was 43.7%; in assay [7] it was 77%; in [9], -65.5%; in assay [10], 22.9%; in [11], -142%; in assay [13] it was 5.3%. Moreover, the competition rate stood at 74.5% in assay [14]; 95% in [15]; 57.6% in assay [16]; 80.3% in assay [17]; 27.8% in assay [18]. In addition, the “Maximum mean fluorescence intensity” value was 82 in assay [6] and 4700 in [12]. The binding result in assay [6] is “no binding”. In assay [8], this molecule displayed a Kd of 9.13 nM. In [8], the koff was 0.00501 s⁻¹. The same molecule yielded a kon in [8] of 549000 M⁻¹ s⁻¹. For the same molecule, a half-maximal effect in assay [12] (EC50) was put at 11.5 nM.

B6: S009-F1.56.1 (antibody, human IgG1, kappa, V domains shown)
VH: EVQLQQSGAEVVKPGASVKLSCTASGFNIRHTYMHWVKQRPEQGLEWIGRIDPANGNTEYDPKFQGKATITADTSSNTAYLQLSSLTSEDTAVYYCARDGWYIDVWGAGTTVTVSS
VL: DIVMSQSPSSLAVSVGEKVTMSCKSSQSLLYSNNQKNYLAWYQQKPGQSPKLLIYWASTRESGVPDRFTGSGSGTDFTLTISSVKAEDLAVYYCQRYYSYPWTFGGGTKLEIKR
notes: as for B1
With B6, the “Maximum mean fluorescence intensity” value in assay [1] stood at 363; in assay [2] it was 11700; in assay [3] it was 43100; in assay [4], 96300. Besides, the binding result in [1] is recorded as “no binding”. The EC50 amounted to 0.67 nM in assay [2], 0.79 nM in [3] and 1.59 nM in assay [4].
